Here are results for three substances from article PMC9579148.

Broadly, the Kd is the concentration at which binding is half-saturated. What is called stoichiometry N is a count of units in the complex or per binding partner.

The test addresses SARS-CoV-2 main protease M^pro (untagged, native termini) (SARS-CoV-2) (UniProt P0DTD1). The test is described as follows: ITC. In general terms: Isothermal titration calorimetry measures the heat released or taken up as one component is titrated into another.

In turn, “compound 4 (acetyl-Gly-Phe-His aldehyde, tripeptide derivative of AT1001)” showed a Kd of 640 nM, a dH of -12.7 kcal/mol and a stoichiometry N of 1.04.

“compound 57 (BOC-Gly-Phe-His aldehyde) (peptide)”: the dissociation constant Kd stood at 442 nM, the dH was -14.5 kcal/mol and the stoichiometry N amounted to 0.991.

Substance “compound 58 (octanoyl-Gly-Phe-His aldehyde) (peptide)” had a Kd of 425 nM, a dH of -16.4 kcal/mol and a stoichiometry N of 0.966.
